Measurements taken from patent publication US20040048790A1 (published 2004).
Non-standard residues stand in square brackets, D forms with d. No end group written: not given here. Abu = CC[C@H](N)C(=O)O

These binders were tested against HLA-A*0203 (human) (assay: 125I-probe peptide inhibition, purified HLA).

| IC50 | Binder |
| --- | --- |
| 7.7 nM | [Abu]LLAKT[Abu]PV [p53.135B1L2B7] |

What follows are binders tested against HLA-A*0206 (human) (assay: 125I-probe peptide inhibition, purified HLA).

| IC50 | Binder |
| --- | --- |
| 64 nM | [Abu]LLAKT[Abu]PV [p53.135B1L2B7] |

Molecular target: HLA-A*0206 (human)
Assay: 125I-probe peptide inhibition, purified HLA
Remark: another data set of the same source

| IC50 | Binder |
| --- | --- |
| 67 nM | [Abu]QLAKT[Abu]PV [p53.135B1B7] |

What follows are binders tested against HLA-A*6801 (human) (assay: 125I-probe peptide inhibition, purified HLA).

| IC50 | Binder |
| --- | --- |
| 140 nM | SS[Abu]MGGMNK [p53.240 (9-mer SSBMGGMNK)] |

What follows are binders tested against HLA-B*5101 (human) (assay: competition vs 125I probe peptide, purified HLA).

| IC50 | Binder |
| --- | --- |
| 220 nM | FPALNKMI [p53.127.F1I8] |
| 9 nM | FPILTIITI [p53.249.F1I9] |

The binders below were run against HLA-B*5301 (human) (assay: competition vs 125I probe peptide, purified HLA).

| IC50 | Binder |
| --- | --- |
| 93 nM | FPSWPLSSSV [p53.88.F1] |
| 4 nM | FPILTIITI [p53.249.F1I9] |

What follows are binders tested against HLA-B*0702 (human) (assay: competition vs 125I probe peptide, purified HLA).

| IC50 | Binder |
| --- | --- |
| 74 nM | FPILTIITI [p53.249.F1I9] |
| 6.5 nM | FPILTIITL [p53.249.F1] |

What follows are binders tested against HLA-B*5401 (human) (assay: competition vs 125I probe peptide, purified HLA).

| IC50 | Binder |
| --- | --- |
| 0.3 nM | FPSWPLSSSV [p53.88.F1] |
| 1.8 nM | FPILTIITI [p53.249.F1I9] |
| 5 nM | FPILTIITL [p53.249.F1] |

The binders below were run against HLA-A*2402 (human) (assay: competition vs 125I probe peptide, purified HLA).

| IC50 | Binder |
| --- | --- |
| 30 nM | TYQGSYGFRF [p53.102.F10] |

The binders below were run against HLA-B*5401 (human) (assay: 125I-probe peptide inhibition, purified HLA).

| IC50 | Binder |
| --- | --- |
| 1.1 nM | FPAPAAPTPA [p53.74.F1 (10-mer)] |
| 1.6 nM | FPAPSWPI [p53.86.F118] |
| 9.1 nM | FPAPSWPL [p53.86.F1] |
| 2.9 nM | FPRMPEAAPPI [p53.63.F1111] |
| 0.3 nM | FPRMPEAAPPV [p53.63F1] |
| 1.2 nM | FPAPAPSWPI [p53.84.F1110] |
| 1.7 nM | FPAPAPSWPL [p53.84.F1] |
| 63 nM | FPPVAPAPAI [p53.70.F1110] |
| 2.4 nM | FPSWPLSSSI [p53.88.F1110] |
| 83 nM | FPLPSQAI [p53.33.F1] |
| 7.7 nM | FPTPAAPI [p53.79.F118] |
| 1 nM | FPAAPTPAA [p53.76.F1 (9-mer)] |
| 1.3 nM | FPAAPTPAAPA [p53.76.F1 (11-mer)] |
| 2.1 nM | FPAPAAPTPAA [p53.74.F1 (11-mer)] |

What follows are binders tested against HLA-B*3501 (human) (assay: 125I-probe peptide inhibition, purified HLA).

| IC50 | Binder |
| --- | --- |
| 28 nM | FPAPAAPTPA [p53.74.F1 (10-mer)] |
| 4.8 nM | FPAPSWPI [p53.86.F118] |
| 3.1 nM | FPAPSWPL [p53.86.F1] |
| 5.1 nM | FPAPAPSWPL [p53.84.F1] |
| 720 nM | FPLPSQAI [p53.33.F1] |

The binders below were run against HLA-B*5101 (human) (assay: 125I-probe peptide inhibition, purified HLA).

| IC50 | Binder |
| --- | --- |
| 809 nM | FPAAPTPAA [p53.76.F1 (9-mer)] |

Each binder was assayed against HLA-B*5301 (human) (assay: 125I-probe peptide inhibition, purified HLA).

| IC50 | Binder |
| --- | --- |
| 3.3 nM | FPAPSWPI [p53.86.F118] |
| 4 nM | FPAPSWPL [p53.86.F1] |
| 5470 nM | FPRMPEAAPPI [p53.63.F1111] |
| 8.5 nM | FPSWPLSSSI [p53.88.F1110] |
| 291 nM | FPLPSQAI [p53.33.F1] |
| 6200 nM | FPTPAAPI [p53.79.F118] |
| 620 nM | FPAAPTPAA [p53.76.F1 (9-mer)] |

The binders below were run against HLA-B*0702 (human) (assay: 125I-probe peptide inhibition, purified HLA).

| IC50 | Binder |
| --- | --- |
| 0.8 nM | FPAPAAPTPA [p53.74.F1 (10-mer)] |
| 120 nM | FPAPSWPI [p53.86.F118] |
| 290 nM | FPPVAPAPAI [p53.70.F1110] |
| 90 nM | FPTPAAPI [p53.79.F118] |
| 34 nM | FPAAPTPAAPA [p53.76.F1 (11-mer)] |
| 87 nM | FPAPAAPTPAA [p53.74.F1 (11-mer)] |
